Measured values: paper PMC6511404
Like-named read-outs stand apart in the source and are kept apart here.

How the values were obtained:
[1] = target: E. coli enolase, detagged (His tag removed by thrombin) (E. coli); test: crystal structure
[2] = target: E. coli enolase, detagged (His tag removed by thrombin) (E. coli); test: crystal structure; remark: listed apart in the source

Chain of E. coli enolase, detagged (His tag removed by thrombin) (enzyme) (A1AEW7 2-432): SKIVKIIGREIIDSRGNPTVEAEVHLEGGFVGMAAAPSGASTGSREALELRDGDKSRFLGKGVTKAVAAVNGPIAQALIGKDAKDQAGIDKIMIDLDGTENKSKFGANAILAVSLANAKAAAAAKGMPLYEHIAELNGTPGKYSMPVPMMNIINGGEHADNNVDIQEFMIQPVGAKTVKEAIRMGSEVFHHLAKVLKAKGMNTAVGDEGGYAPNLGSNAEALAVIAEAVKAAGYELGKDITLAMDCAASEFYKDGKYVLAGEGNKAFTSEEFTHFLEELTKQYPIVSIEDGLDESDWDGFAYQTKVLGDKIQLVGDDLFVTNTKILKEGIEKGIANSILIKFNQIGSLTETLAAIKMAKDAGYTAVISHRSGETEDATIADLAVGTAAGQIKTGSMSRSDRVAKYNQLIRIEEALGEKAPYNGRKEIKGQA

stoichiometry N [1]: 6
stoichiometry N [2]: 2
Substance: E. coli enolase, detagged (His tag removed by thrombin) (enzyme)
